According to paper PMC10803263, “General transcription factor from Escherichia coli with a distinct mechanism of action” (Nature Structural & Molecular Biology, 2023):

How the values were obtained:
[1] = biological target: T1, RNA polymerase β subunit (in purified RNAP) (E. coli, UniProt P0A8V2 1-1342); test: cryo-EM structure; purified Eσ^70 incubated with ssrA promoter DNA (threefold excess), then CedA (fivefold molar excess over RNAP); complex repurified on Superose 6 Increase in 30 mM HEPES pH 8.0, 100 mM KCl, 5 mM MgCl2, 0.5 mM TCEP; 2.76 Å; details: both partners purified
T1 construct: RNA polymerase β subunit (RpoB), WT E. coli; Stood in the assay as a subunit of the purified RNAPσ70 holoenzyme; also called β-lobe/βi4
T1 sequence (P0A8V2 whole entry): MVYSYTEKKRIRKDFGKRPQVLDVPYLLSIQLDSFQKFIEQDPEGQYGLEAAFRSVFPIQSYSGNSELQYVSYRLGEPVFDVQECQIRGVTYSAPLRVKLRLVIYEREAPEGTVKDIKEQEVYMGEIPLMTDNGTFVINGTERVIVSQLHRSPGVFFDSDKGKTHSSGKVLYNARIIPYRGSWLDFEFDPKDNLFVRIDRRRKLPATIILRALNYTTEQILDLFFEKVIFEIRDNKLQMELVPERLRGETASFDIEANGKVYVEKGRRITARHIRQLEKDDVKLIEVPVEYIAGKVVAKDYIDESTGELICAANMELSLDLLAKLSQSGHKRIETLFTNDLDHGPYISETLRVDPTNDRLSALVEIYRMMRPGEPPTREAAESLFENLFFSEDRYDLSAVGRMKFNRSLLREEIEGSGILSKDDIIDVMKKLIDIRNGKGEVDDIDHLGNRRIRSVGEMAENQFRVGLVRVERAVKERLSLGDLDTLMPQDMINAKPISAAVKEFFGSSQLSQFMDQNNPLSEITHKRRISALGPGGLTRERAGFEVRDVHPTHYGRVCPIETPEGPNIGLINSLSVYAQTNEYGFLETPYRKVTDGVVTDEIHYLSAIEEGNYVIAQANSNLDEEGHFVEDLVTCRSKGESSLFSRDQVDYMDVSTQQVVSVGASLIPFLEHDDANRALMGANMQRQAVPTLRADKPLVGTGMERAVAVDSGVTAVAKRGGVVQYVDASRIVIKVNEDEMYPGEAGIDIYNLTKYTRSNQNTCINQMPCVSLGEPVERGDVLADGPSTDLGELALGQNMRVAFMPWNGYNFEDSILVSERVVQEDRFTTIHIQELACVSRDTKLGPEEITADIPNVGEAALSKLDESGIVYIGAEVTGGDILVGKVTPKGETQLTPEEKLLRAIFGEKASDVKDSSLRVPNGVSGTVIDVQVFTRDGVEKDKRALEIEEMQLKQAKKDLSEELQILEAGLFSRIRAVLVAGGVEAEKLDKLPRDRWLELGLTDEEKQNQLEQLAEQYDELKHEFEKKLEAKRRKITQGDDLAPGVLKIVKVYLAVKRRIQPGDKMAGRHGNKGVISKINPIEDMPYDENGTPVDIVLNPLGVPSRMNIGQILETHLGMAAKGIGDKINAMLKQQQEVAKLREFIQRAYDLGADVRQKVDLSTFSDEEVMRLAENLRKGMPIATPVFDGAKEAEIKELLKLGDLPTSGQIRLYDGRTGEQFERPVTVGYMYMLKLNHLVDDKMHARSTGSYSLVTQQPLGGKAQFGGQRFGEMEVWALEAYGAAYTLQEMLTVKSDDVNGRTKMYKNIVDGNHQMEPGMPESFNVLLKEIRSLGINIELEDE

σ^70 (purified) = biological target: T2, σ^70 (purified) (E. coli, UniProt P00579 1-613); test: as above; details: both partners purified
T2 construct: RNA polymerase sigma factor σ70 (RpoD), WT E. coli; also called RpoD
T2 sequence (P00579 whole entry): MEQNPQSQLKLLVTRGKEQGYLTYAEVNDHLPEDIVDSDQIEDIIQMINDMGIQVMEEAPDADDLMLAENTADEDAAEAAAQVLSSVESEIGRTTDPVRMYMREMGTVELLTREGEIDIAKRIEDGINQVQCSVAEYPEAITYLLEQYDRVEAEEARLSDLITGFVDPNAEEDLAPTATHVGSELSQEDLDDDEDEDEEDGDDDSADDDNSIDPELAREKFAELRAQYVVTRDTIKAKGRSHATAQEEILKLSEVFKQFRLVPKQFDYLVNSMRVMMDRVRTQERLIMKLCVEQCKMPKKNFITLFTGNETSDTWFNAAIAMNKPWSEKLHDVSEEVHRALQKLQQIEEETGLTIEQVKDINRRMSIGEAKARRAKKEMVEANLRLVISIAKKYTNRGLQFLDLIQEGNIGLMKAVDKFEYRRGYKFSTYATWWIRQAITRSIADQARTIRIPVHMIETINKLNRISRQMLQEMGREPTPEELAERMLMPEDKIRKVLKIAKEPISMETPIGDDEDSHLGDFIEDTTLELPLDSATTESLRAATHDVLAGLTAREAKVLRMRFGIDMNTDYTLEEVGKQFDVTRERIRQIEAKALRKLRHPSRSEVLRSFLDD

B1: CedA (purified recombinant) (natural protein, E. coli, UniProt P0AE60 1-80, looked up)
chain: MKKPLRQQNRQIISYVPRTEPAPPEHAIKMDSFRDVWMLRGKYVAFVLMGESFLRSPAFTVPESAQRWANQIRQEGEVTE
notes: CedA, E. coli; the open reading frame of cedA amplified from the MG1655 chromosome; also called WT CedA; source: E. coli BL21(DE3), pSumoH10-cedA, purified (HisTrap, Ulp1 tag removal, HiTrap SP, Superdex 75); not shown: 10× His, N-terminal, cleaved; SUMO, N-terminal, cleaved
[1]
  binding result: binds
σ^70 (purified)
  binding result: binds
